Data reported in publication PMC9027224 (Diagnostics, 2022).
Where two headings read alike, the source gives them in different places.

Legend:
[1] = tested on: head and neck squamous cell carcinoma; settings: 10 patients with head and neck squamous cell carcinoma; cited from earlier work
Description: (§1) A secondary objective of our study was to assess [^68Ga]Ga-NODAGA-E[c(RGDyK)]2 uptake in tumors.

[2] = in vivo; cited from earlier work
Description: as §1

integrin subtype αvβ3 = settings: in vitro; unlabelled NODAGA-E[c(RGDyK)]2; ref Bentsen et al., unpublished data; read-out: affinity (KD); cited from earlier work
Description: A large number of PET tracers with the RGD motif have been developed and tested preclinically. However, only a few have reached testing in clinical trials, and none have yet been employed for routine clinical use. The clinical translation of first-generation integrin-targeting PET tracers with ^18F, e.g., ^18F-Galacto-RGD, was hampered by complex radiochemistry. Thus, several approaches to optimize the production and tracer stability as well as tumor-binding properties have been investigated. Addressing the need for assessing integrin αvβ3, our group evaluated a number of PET tracers uti ...

[3] = design: species or system human; settings: in vivo, iv
Description: Two peripheral intravenous catheters were placed, one for tracer injection and one in the contralateral arm for withdrawal of blood samples and administration of i.v. contrast agent. Electrocardiogram and vital signs as well as safety blood samples were monitored before and following [^68Ga]Ga-NODAGA-E[c(RGDyK)]2 injection. […] Furthermore, urine was collected for pharmacokinetic analysis and dosimetry in a subset of patients (Figure 1). The activity concentration of the urine and plasma was counted on Cobra II TM Gamma Counter (Packard, CT, USA). Blood and urine samples were analyzed on a Dionex UltiMate 3000 column-switching high-performance liquid chromatography (HPLC) system with a Posi-RAM Module 4 (ThermoFisher Scientific, Waltham, MA, USA). The full blood samples were centrifuged (3500 rpm, 4 min) and the supernatant plasma was collected and filtered through a […] syringe filter prior to the HPLC analysis. The HPLC analysis consisted of an extraction step and an analytical step, as previously described. During the extraction step, the plasma samples were passed through a shim-pack XR-ODS (30 × 4.6 mm, 2.2 μm). The valves were switched, and the sample was then analyzed on an Onyx monolithic column (C18, 50 × 4.6 mm). […]

[4] = design: species or system human; settings: in vivo
Description: Dosimetry was based on the decay-uncorrected image sets from the 3 time points (10 patients) supplemented with sampled urine data (7 patients). For each patient, organ, and time point, tissue activity concentration (kBq/mL) was determined in VOIs defined on CT. Activity (per patient, organ and time) was estimated by multiplying concentration values by organ masses of the OLINDA adult phantom, normalized per injected MBq and scaled for patient weight. Time integrated activity coefficients (TIAC, unit h) for each patient and organ was determined by numerical integration and analytical extrapolation to infinity assuming only physical decay. The resulting organ TIACs were averaged over patients. All data were entered into OLINDA/EXM 2.0 software (Vanderbilt University, TN, USA and HERMES Medical Solutions, Stockholm, Sweden).
Urine was collected immediately after each scan in pre-weighted plastic bottles. The cumulated decay-corrected activity (MBq) of the excreted urine was plotted over time for all 7 subjects and data fitted to a one-phase exponential association. […] A detailed description of the dosimetry is available in Supplementary Material (Section S2).
testine, spleen, stomach contents, testes, thyroid, and upper large intestine. For each pa-
tient, organ, and time-point, tissue activity concentration (kBq/mL) was calculated as the
average of the mean values from 3 VOIs. Total activity (per patient, organ and time) was
estimated by multiplying these average values by organ masses of the OLINDA male
adult phantom. Activity values were normalized to 1MBq by dividing with injected
activity and scaled with the ratio of actual patient weight to the weight of the standard
model (73 kg). As a surrogate for red marrow activity, VOIs were drawn encompassing
large portions of the L3–L5 vertebrae. Time integrated activity coefficients (TIAC, for-
merly known as residence time; unit h) for each patient and organ was determined by nu-
merical integration up to the third (last) data point and analytical extrapolation to infinity
assuming only physical decay. Piecewise linearity was assumed from time zero up to the
second data point and a mono-exponential was used between the second and third data
points. The resulting organ TIACs were averaged over patients. All data were entered into
OLINDA/EXM 2.0 software (Vanderbilt Universi ty, and HERMES Medical Solutions).
Urine was collected immediately after each scan in pre-weighted plastic bottles and
for each individual voiding the weight (volume) was measured and a 500 μL sample was
drawn for activity measurement in a calibrated gamma well counter (Cobra II TM,
Gamma Counting Systems; PACKARD, Meriden, CT, USA).The cumulated decay cor-
rected activity (in MBq) of the excreted urine, normalized to 1 MBq of injection, was plot-
ted over time (in Excel) for all 7 subjects and data fitted to a one phase exponential asso-
ciation (exponential growing towards a limit). The resulting limit and half-life were used
as input to the bladder voiding model of OLINDA, yielding the TIAC for bladder con-
tents. In concordance with the actual setup a bladder voiding interval of 1 hour was se-
The value for “remainder tissue” was calculated as the total area (in h) for 1 MBq
minus the sum of the organ-specific values (except bladder) minus the value passed to
urine (based on the fitted model parameters). The fraction of the latter that is attributed to
the bladder depends on the voiding interval.
The output from OLINDA consists of absorbed doses for organs and effective dose
with weight factors according to ICRP 103 [3]. […]
3. The 2007 Recommendations of the International Commission on Radiological Protection. ICRP publication 103. Ann ICRP

[5] = human, in vivo
Description: Two peripheral intravenous catheters were placed, one for tracer injection and one in the contralateral arm for withdrawal of blood samples and administration of i.v. contrast agent. Electrocardiogram and vital signs as well as safety blood samples were monitored before and following [^68Ga]Ga-NODAGA-E[c(RGDyK)]2 injection. […] Furthermore, urine was collected for pharmacokinetic analysis and dosimetry in a subset of patients (Figure 1).

For “[^68Ga]Ga-NODAGA-RGDyK [monomeric RGD PET tracer]”, the “mean SUVmax in the primary tumor” value [1] is given as 3.9 ± 1.1, the effective dose [2] is given as 19.8 µSv/MBq and the kidney radiation [2] is given as 0.046 mGy/MBq.

In the case of “NODAGA-E[c(RGDyK)]2 (head to tail) [unlabelled precursor of the tracer, obtained as acetate from ABX GmbH]”, the Kd (integrin subtype αvβ3) is listed as 0.075 nM.

For `N=C(N)NCCC[C@@H]1NC(=O)[C@H](CCCCNC(=O)CC[C@H](NC(=O)CCC(C(=O)O)N2CCN(CC(=O)O)CCN(CC(=O)O)CC2)C(=O)NCCCC[C@@H]2NC(=O)[C@@H](Cc3ccc(O)cc3)NC(=O)[C@H](CC(=O)O)NC(=O)CNC(=O)[C@H](CCCNC(=N)N)NC2=O)NC(=O)[C@@H](Cc2ccc(O)cc2)NC(=O)[C@H](CC(=O)O)NC(=O)CNC1=O` (stereo partly drawn) [[^68Ga]Ga-NODAGA-E[c(RGDyK)]2, metal not drawn], the plasma half-life ([3]; human) was 8.6 min, the “plasma metabolites by reversed-phase HPLC” value [3] was “two unknown polar metabolites” and the “Mean Absorbed Dose, Adrenals” value [4] was 0.0245 mGy/MBq. The “Mean Absorbed Dose, Brain” value [4] was 0.00252 mGy/MBq, the “Mean Absorbed Dose, Breasts” value [4] was 0.0105 mGy/MBq and the “Mean Absorbed Dose, Esophagus” value [4] was 0.0112 mGy/MBq. For the same compound, the “Mean Absorbed Dose, Eyes” value [4] was 0.00929 mGy/MBq, the “Mean Absorbed Dose, Gallbladder Wall” value [4] was 0.0143 mGy/MBq and the “Mean Absorbed Dose, Heart Wall” value [4] was 0.0146 mGy/MBq. For the same compound, the “Mean Absorbed Dose, Kidneys” value [4] was 0.0627 mGy/MBq, the “Mean Absorbed Dose, Left Colon” value [4] was 0.0136 mGy/MBq and the “Mean Absorbed Dose, Liver” value [4] was 0.0279 mGy/MBq. The “Mean Absorbed Dose, Lungs” value [4] was 0.00792 mGy/MBq, the “Mean Absorbed Dose, Osteogenic Cells” value [4] was 0.0136 mGy/MBq and the “Mean Absorbed Dose, Ovaries” value [4] was 0.0154 mGy/MBq. For the same compound, the “Mean Absorbed Dose, Pancreas” value [4] was 0.0144 mGy/MBq, the “Mean Absorbed Dose, Prostate” value [4] was 0.0133 mGy/MBq and the “Mean Absorbed Dose, Rectum” value [4] was 0.0151 mGy/MBq. The “Mean Absorbed Dose, Red Marrow” value [4] was 0.015 mGy/MBq, the “Mean Absorbed Dose, Right Colon” value [4] was 0.0131 mGy/MBq and the “Mean Absorbed Dose, Salivary Glands” value [4] was 0.00996 mGy/MBq. The “Mean Absorbed Dose, Small Intestine” value [4] was 0.0603 mGy/MBq, the “Mean Absorbed Dose, Spleen” value [4] was 0.0504 mGy/MBq and the “Mean Absorbed Dose, Stomach Wall” value [4] was 0.0263 mGy/MBq. The “Mean Absorbed Dose, Testes” value [4] was 0.0192 mGy/MBq, the “Mean Absorbed Dose, Thymus” value [4] was 0.011 mGy/MBq and the “Mean Absorbed Dose, Thyroid” value [4] was 0.0663 mGy/MBq. The “Mean Absorbed Dose, Total Body” value [4] was 0.0133 mGy/MBq, the “Mean Absorbed Dose, Urinary Bladder Wall” value [4] was 0.126 mGy/MBq and the “Mean Absorbed Dose, Uterus” value [4] was 0.018 mGy/MBq. For the same compound, the “effective dose” value [4] was 0.0218 mSv/MBq, the “effective dose (radiation exposure) at injected activity of 200 MBq” value [4] was 4.4 mSv and the kidney radiation [4] was 0.063 mGy/MBq. For the same compound, the “radiation dose, kidneys” value [4] was 0.063 mSv/MBq, the “radiation dose, thyroid” value [4] was 0.066 mSv/MBq and the “radiation dose, urinary bladder wall” value [4] was 0.126 mSv/MBq. For the same compound, the “acute or long-term effects on blood parameters or organ function” value [5] was “No acute or long-term effects” and the “changes in vital signs, laboratory studies or electrocardiograms” value [5] was “No significant changes”.
